According to PMC11246235:

Target: CST (FLAG-Ctc1, Stn1, HA-Ten1) purified from HEK293T/17 cells (human) (UniProt Q2NKJ3)
Assay: co-IP

stoichiometry of Polα/primase to CST: 20%
Substance: Polα/primase (endogenous), P09884 1-1462; Q14181 1-598; P49642 1-420; P49643 1-509
